This note sets out measurements from patent publication US20170369572A1 (CELGENE, published 2017).

The target in assay [1] is T1, human C1q (human, UniProt P02745 23-245; P02746 28-253; P02747 29-245).
T1 construct: also called C1q (AbD Serotec 2221-5504)
The experiment in a line: C1q binding ELISA, antibody coated and titrated from 133.4 nM, human C1q at 2 µg/mL, detected with anti-C1q HRP. The protocol: (§1) Method: 96-well high protein binding ELISA plates (MaxSorp Nunc) were coated overnight at 4° C. with sample anti-CD47 antibody variants diluted in 0.05 M Sodium Bicarbonate Buffer (pH 9). Samples were diluted at a high concentration of 133.4 nM (20 μg/ml) and titrated 1:2 in an 11-point dilution curve. Plates were washed three times in PBS, 0.05% Tween 20 and blocked for 1 hour at room temperature with ELISA Diluent (0.1 M NAPO₄, 0.1 M NaCl, 0.1% gelatin, 0.05% Tween 20, 0.05% ProClin300). Plates were then washed again three times and incubated for two hours at room temperature with 2 μg/mL human C1q (AbD Serotec 2221-5504, 1 mg/mL stock) diluted in ELISA Diluent. Plates were then washed three times and incubated with sheep anti-human C1q HRP (AbD Serotec 2221-5004P) diluted 1:200 in ELISA Diluent for 1 hour at room temperature to detect bound Clq. Plates were then washed three times, then 100 μL of TMB solution was added. Reaction was quenched by adding 100 μl of 1M Phosphoric Acid and plate was read at 450 nm. Data are plotted using Prism6 as non-linear regression with log (inhibitor) vs. response—Variable slope (four parameters).

The target in assay [2] is T2, human CD47 on CCRF-CEM cells (human, UniProt Q08722 19-323).
T2 construct: Endogenous CD47 on the human T lymphoblast line CCRF-CEM (ATCC CCL-119); also called CD47-positive CCRF-CEM cells; CCRF-EM cells
Kind of assay: flow cytometry on CCRF-CEM cells, MFI against concentration, one site specific binding with Hill slope. The protocol:
To obtain binding curves, sample variants were titrated 1:2 in FACS buffer (PBS 2% FCS) starting from a high concentration of ˜66 nM for each sample. 0.1×10⁶ CCRF-EM cells were plated in a 96 well plate and incubated in 50 μl FACS buffer containing the indicated concentration of sample variants for 1 hour in ice. Cells were then washed with 150 μ1 FACS buffer and incubated in 50 μl FACS buffer containing the secondary antibody (anti-human-IgG-PE, Jackson ImmunoResearch) diluted 1:100, for 1 hr in ice. Cells were then washed with FACS buffer and fixed in 2% PFA for acquisition with LSR II, DB flow cytometer (BD Biosciences, San Jose, Calif.). Flow Cytometry analysis was performed using FloJo software Version 9.6.4. To obtain titration curves and Kd, Mean Fluorescence Intensity (MFI) values were plotted against concentration (nM). Kd values were calculated using Prism 6, Non linear regression curve fit analysis, One Site Specific Binding with Hill Slope.
(In general: Flow cytometry measures light scatter and fluorescence of single cells or particles in a stream.)

For assay [3], the target named is T1, human C1q. Kind of assay: C1q binding ELISA, antibody coated and titrated, bound human C1q detected with anti-C1q HRP; NA = do not show activity. As to the method: as §1
Assay [4] deals with T3, human CD47 antigen (human, UniProt Q08722 19-139, limits assumed).
T3 construct: also called CD47 analyte
The experiment in a line: SPR (Biacore), antibody captured on anti-human Fc, human CD47 as analyte 3.125-50 nM, 1:1 model. The protocol:
(§2) Immobilization: Anti-human Fc (AHC) surfaces were prepared by amine-coupling monoclonal mouse anti-human Fc IgG (included in the Biacore Human Antibody Capture Kit, GE Life Sciences Cat #BR-1008-39) to a Biacore CM5 sensor chip surface. The running buffer for the immobilization procedure was HBS-EP+ (10 mM HEPES, 150 mM NaCl, 3 mM EDTA, 0.05% v/v P-20 as surfactant). The following was performed in all four flow cells to prepare surfaces amine-coupled anti-human Fc IgG. The CM5 chip surface was activated by injecting a 1:1 (v/v) mixture of 400 mM EDC and 100 mM NHS for 7 minutes at 10 μL/min. Following this treatment, anti-human IgG was diluted to 25 μg/mL in 10 mM sodium acetate buffer pH 5.0, and injected over all the flow cells at 10 μL/min for 7 minutes. Then, Ethanolamine was injected at 10 μL/min for 7 minutes to block all the surfaces.
(§3) Kinetic Assays: For kinetic assays anti-CD47 antibodies were captured onto the anti-human Fc surfaces (surface preparation described above). For capture of the antibodies with human Fc, the antibodies were diluted to 10 μg/mL in HBS-EP+ running buffer. The antibody variants were immobilized by flowing over flow cell 2, 3 or 4 at a flow rate of 10 uL/min for 12 seconds. The analyte (human CD47 antigen) was diluted into running buffer to prepare a serial dilution series created with a 2-fold dilution factor to give concentrations of 3.125, 6.25, 12.5, 25 and 50 nM. After anti-CD47 antibody capture, the CD47 analyte was injected over the flow cells for 180 seconds (3 minutes) at 50 μL/min, and complex dissociation was monitored for 900 seconds (15 minutes). Buffer blanks were also run, and were used to reference the analyte binding data before fitting. Anti-human Fc surfaces were regenerated with two 30-second injections of 3M MgCl₂ at 30 uL/min between each analyte binding cycle.
(§4) Kinetic data analysis: Experimental data for a given antibody—antigen interaction were fit using the 1:1 binding model, using global Rₘₐₓ, global kₐ (association), global kd (dissociation) parameters, and constant RI (bulk refractive index) parameters.
On the technique in general: SPR reads the build-up and loss of mass on a sensor chip optically.

Assay [5] has as its target T3, human CD47 antigen. Kind of assay: SPR (Biacore), experimental Rmax against theoretical Rmax, stoichiometry 2. As to the method:
as §3
Kinetic data analysis: Experimental data for a given antibody—antigen interaction were fit using the 1:1 binding model, using global Rₘₐₓ, global kₐ (association), global kd (dissociation) parameters, and constant RI (bulk refractive index) parameters. Fraction activity (% ligand activity) was determinined using the following formula to calculate the relationship between the theoretical Rₘₐₓ (Rₘₐₓ Theo) and the experimental Rₘₐₓ (Rₘₐₓ exp). In the formula, stoichiometry represents the instances of interaction between antibody and antigen, for instance, when the antibody is the ligand, each of the antibody arms can interact with antigen, thus the stoichiometry is 2.

In assay [6] the target is T3, human CD47 antigen. Kind of assay: SPR (Biacore): antibody captured on anti-human Fc CM5 chip, human CD47 as analyte at 3.125-50 nM, 1:1 Binding model; the text says this fit is not reliable. The protocol:
as §2, §3, §4

As usually defined, the EC50 is the concentration giving half of the maximal effect. A lower EC50 goes with higher potency in that assay. A word on the Kd: it is the constant that tells how readily two partners part at equilibrium. Higher therefore signals lower affinity. As usually defined, the koff is a measure of how fast the partners let go of each other. A high value points to fast dissociation. In general, kon refers to the second-order rate constant of association. A lower kon goes with slow association.

T1 sequence (P02745 23-245 limits assumed, chain 1 of 3): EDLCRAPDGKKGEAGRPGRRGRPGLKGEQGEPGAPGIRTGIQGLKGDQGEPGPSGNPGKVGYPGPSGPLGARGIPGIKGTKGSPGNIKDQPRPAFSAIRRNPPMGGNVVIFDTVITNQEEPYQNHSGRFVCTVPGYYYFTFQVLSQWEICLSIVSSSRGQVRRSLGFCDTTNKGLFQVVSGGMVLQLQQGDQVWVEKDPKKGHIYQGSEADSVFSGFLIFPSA
T1 sequence (P02746 28-253 limits assumed, chain 2 of 3): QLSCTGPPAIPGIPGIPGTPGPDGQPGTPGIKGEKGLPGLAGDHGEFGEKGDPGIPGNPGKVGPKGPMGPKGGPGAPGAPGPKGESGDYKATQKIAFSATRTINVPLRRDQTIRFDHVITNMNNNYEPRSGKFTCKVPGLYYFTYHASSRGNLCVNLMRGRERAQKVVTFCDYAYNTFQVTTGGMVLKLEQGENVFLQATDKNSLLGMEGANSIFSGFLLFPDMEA
T1 sequence (P02747 29-245 limits assumed, chain 3 of 3): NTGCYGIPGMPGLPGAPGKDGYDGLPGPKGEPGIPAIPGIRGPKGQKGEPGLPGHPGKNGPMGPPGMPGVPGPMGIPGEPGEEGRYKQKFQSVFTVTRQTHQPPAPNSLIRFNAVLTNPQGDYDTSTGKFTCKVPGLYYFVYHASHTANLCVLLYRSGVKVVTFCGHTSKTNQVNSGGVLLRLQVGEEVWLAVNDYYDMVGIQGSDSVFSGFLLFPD

B1: anti-CD47 antibody IgG1-parental, CHO expressed (antibody)
VH: not shown
VL: NIQMTQSPSAMSASVGDRVTITCKASQDIHRYLSWFQQKPGKVPKHLIYRANRLVSGVPSRFSGSGSGTEFTLTISSLQPEDFATYYCLQYDEFPYTFGGGTKVEIKRTVAAPSVFIFPPSDEQLKSGTASVVCLLNNFYPREAKVQWKVDNALQSGNSQESVTEQDSKDSTYSLSSTLTLSKADYEKHKVYACEVTHQGLSSPVTKSFNRGEC
notes: Parental antibody as IgG1, made in CHO cells; also called IgG1-QN1-CHO
On to B1, for which, in the assay with human C1q [1], the EC50 was 3.6 nM. This molecule displayed a Kd in assay [2] of 0.18 nM.

B2: anti-CD47 antibody IgG4P-parental, CHO expressed (antibody)
VH: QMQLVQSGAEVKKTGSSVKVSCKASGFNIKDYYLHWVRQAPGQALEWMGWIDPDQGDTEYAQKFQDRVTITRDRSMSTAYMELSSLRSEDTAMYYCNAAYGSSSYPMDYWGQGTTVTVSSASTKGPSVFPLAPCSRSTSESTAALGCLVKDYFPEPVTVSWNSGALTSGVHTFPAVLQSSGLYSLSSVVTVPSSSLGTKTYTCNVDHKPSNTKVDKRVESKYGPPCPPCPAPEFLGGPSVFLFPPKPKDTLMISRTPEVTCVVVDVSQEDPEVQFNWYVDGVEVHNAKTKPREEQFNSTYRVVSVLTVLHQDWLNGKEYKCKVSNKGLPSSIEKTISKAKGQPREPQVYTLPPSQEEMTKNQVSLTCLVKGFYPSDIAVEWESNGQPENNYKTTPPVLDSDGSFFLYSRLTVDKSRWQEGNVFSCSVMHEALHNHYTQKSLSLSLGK
VL: B1 VL
notes: Parental antibody as IgG4 S228P, made in CHO cells
As to B2, the binding result with human C1q [3] is “no binding”. The molecule also had a Kd in assay [2] of 0.18 nM.

B3: anti-CD47 antibody IgG4PE-parental, CHO expressed (antibody)
VH: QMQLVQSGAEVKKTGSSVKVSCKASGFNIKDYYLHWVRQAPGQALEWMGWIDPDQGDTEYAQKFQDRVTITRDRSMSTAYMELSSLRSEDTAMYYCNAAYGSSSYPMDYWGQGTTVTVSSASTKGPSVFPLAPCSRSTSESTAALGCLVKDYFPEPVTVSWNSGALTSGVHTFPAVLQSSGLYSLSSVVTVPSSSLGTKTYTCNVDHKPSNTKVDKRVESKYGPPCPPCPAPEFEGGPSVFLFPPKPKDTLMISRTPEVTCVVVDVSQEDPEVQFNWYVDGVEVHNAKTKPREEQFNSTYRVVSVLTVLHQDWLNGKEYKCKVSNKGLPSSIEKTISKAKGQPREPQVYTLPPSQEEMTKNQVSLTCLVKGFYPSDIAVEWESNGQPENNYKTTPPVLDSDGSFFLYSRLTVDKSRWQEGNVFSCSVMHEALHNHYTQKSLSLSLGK
VL: B1 VL
notes: Parental antibody as IgG4 S228P/L235E, made in CHO cells; also called IgG4-PE CHO; CHO IgG4PE
With B3, in the assay with human C1q [3], the binding result is listed as “no binding”. In assay [2], this molecule displayed a Kd of 0.21 nM.

B4: Anti-CD47 CF Control (antibody, V domains shown)
VH: QMQLVQSGAEVKKTGSSVKVSCKASGFNIKDYYLHWVRQAPGQALEWMGWIDPDQGDTEYAQKFQDRVTITRDRSMSTAYMELSSLRSEDTAMYYCNAAYGSSSYPMDYWGQGTTVTV
VL: NIQMTQSPSAMSASVGDRVTITCKASQDIHRYLSWFQQKPGKVPKHLIYRANRLVSGVPSRFSGSGSGTEFTLTISSLQPEDFATYYCLQYDEFPYTFGGGTKVEIK
notes: also called Control Antibody; anti-CD47 control antibody
Turning to B4, in the assay with human CD47 antigen [4], binding was characterised by a dissociation constant (Kd) of 3.16 nM, the koff was found to be 0.00231 s⁻¹ and the kon stood at 732000 M⁻¹ s⁻¹. In addition, in the assay with human CD47 antigen [5], the “% Ligand activity” value stood at 39.4%.

B5: anti-CD47 antibody IgG1-13m, cell-free expressed (antibody)
heavy: not shown
light: MNIQMTQSPSAMSASVGDRVTITCKASQDIHRYLSWFQQKPGKVPKHLIYRANRLVSGVPSRFSGSGSGTEFTLTISSLQPEDFATYYCLQYDEFPYTFGGGTKVEIKRTVAAPSVFIFPPSDEQLKSGTASVVCLLNNFYPREAKVQWKVDNALQSGNSQESVTEQDSKDSTYSLSSTLTLSKADYEKHKVYACEVTHQGLSSPVTKSFNRGEC
notes: IgG1 with 13 framework mutations in VH; cell-free system; also called IgG1-13m-CF
Regarding B5, in the assay with human CD47 antigen [6], the Kd was 4.21 nM, the koff was found to be 0.00398 s⁻¹ and the kon was 946000 M⁻¹ s⁻¹. In the assay with human C1q [3], the binding result is “no binding”. In addition, the affinity in assay [2], expressed as Kd, was 0.15 nM.

B6: anti-CD47 antibody IgG1-parental, cell-free expressed (antibody)
heavy: not shown
light: B5 light
notes: Parental (AB6.12) variable domains on IgG1; cell-free system; also called IgG1-parental-CF; IgG1-CF
Regarding B6, the binding result with human C1q [3] is “no binding”. Besides, in assay [2], binding was put at a Kd of 0.14 nM.

B7: anti-CD47 antibody IgG4P-parental, cell-free expressed (antibody)
heavy: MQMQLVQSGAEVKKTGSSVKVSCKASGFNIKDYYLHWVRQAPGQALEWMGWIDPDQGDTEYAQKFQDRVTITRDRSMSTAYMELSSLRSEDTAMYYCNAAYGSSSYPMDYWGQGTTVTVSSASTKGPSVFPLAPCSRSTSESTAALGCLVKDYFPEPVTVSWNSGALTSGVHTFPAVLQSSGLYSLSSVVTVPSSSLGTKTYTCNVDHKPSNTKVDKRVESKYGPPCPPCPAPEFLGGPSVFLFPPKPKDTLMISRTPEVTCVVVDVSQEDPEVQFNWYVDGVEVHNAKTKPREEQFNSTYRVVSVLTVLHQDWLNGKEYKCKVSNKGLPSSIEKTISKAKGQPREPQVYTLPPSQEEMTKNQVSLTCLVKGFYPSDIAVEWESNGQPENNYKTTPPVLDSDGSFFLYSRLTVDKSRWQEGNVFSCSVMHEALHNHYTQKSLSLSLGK
light: B5 light
notes: Parental variable domains on IgG4 S228P; cell-free system; also called IgG4P-parental-CF
Regarding B7, the binding result with human C1q [3] was “no binding”.

B8: anti-CD47 antibody IgG4P-5m, cell-free expressed (antibody)
heavy: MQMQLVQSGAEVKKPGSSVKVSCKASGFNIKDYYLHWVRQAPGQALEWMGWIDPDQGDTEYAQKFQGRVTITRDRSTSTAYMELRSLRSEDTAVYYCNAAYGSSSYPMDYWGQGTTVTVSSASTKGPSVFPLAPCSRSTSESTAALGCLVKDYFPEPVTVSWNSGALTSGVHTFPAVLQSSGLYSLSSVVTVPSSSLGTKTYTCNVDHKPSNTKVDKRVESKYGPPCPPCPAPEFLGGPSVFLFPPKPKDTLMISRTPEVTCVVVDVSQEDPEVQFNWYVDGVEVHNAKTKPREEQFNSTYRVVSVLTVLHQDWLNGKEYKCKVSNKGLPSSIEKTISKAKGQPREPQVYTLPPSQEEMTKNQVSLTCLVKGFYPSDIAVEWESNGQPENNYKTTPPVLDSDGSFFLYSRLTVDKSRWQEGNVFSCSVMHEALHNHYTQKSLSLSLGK
light: B5 light
notes: IgG4 S228P with 5 framework mutations in VH; cell-free system; also called IgG4P-5m-CF
As for B8, the binding result in the assay with human C1q [3] was “no binding”. The dissociation constant Kd in assay [2] was determined as 0.14 nM. In the assay with human CD47 antigen [4], this molecule displayed a Kd of 3.6 nM, a koff of 0.00254 s⁻¹ and a kon of 704000 M⁻¹ s⁻¹. In addition, the “% Ligand activity” value with human CD47 antigen [5] was determined as 38.2%.

B9: anti-CD47 antibody IgG1-5m, cell-free expressed (antibody)
heavy: not shown
light: B5 light
notes: IgG1 with 5 framework mutations in VH; also called IgG1-5m-CF
For the molecule B9, the binding result in the assay with human C1q [3] is listed as “no binding”. In assay [2], this molecule showed a Kd of 0.12 nM. In the assay with human CD47 antigen [4], this molecule returned a Kd of 4.09 nM, an off-rate (koff) of 0.0026 s⁻¹ and a kon of 636000 M⁻¹ s⁻¹. The “% Ligand activity” value with human CD47 antigen [5] was found to be 37.4%.

B10: anti-CD47 antibody IgG1-13mZ, cell-free expressed (antibody)
heavy: not shown
light: B5 light
notes: IgG1 Z allotype with 13 framework mutations in VH (13 + 2 mutations); cell-free system; also called IgG1-13mZ-CF
For the molecule B10, in the assay with human CD47 antigen [6], the Kd turned out to be 4.91 nM, the koff worked out at 0.00404 s⁻¹ and the on-rate (kon) is 824000 M⁻¹ s⁻¹. For the same molecule, in the assay with human C1q [3], the binding result is “no binding”. Further, the Kd in assay [2] was 0.21 nM.

B11: anti-CD47 antibody IgG4PE-5m, cell-free expressed (antibody)
heavy: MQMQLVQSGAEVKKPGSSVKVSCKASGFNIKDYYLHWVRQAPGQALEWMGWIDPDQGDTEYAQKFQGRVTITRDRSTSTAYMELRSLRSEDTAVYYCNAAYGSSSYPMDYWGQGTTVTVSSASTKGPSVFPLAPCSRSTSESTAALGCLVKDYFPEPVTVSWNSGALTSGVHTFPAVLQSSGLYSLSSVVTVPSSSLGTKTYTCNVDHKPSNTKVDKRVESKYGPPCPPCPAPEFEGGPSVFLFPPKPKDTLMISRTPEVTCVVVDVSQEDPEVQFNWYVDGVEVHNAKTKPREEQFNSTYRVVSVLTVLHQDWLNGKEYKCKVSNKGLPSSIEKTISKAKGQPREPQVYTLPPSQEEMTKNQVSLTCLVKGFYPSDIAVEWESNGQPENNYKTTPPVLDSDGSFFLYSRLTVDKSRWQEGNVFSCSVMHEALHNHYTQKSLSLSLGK
light: B5 light
notes: IgG4 S228P/L235E with 5 framework mutations in VH; cell-free system; also called IgG4PE-5m-CF
For B11, in the assay with human C1q [3], the binding result is “no binding”. The molecule also gave a Kd in assay [2] of 0.14 nM. For the same molecule, in the assay with human CD47 antigen [4], the dissociation constant Kd turned out to be 4.27 nM, the off-rate constant (koff) stood at 0.00254 s⁻¹ and the kon is 594000 M⁻¹ s⁻¹. In the assay with human CD47 antigen [5], the “% Ligand activity” value came to 39.2%.

B12: anti-CD47 antibody IgG4PE-parental, cell-free expressed (antibody)
heavy: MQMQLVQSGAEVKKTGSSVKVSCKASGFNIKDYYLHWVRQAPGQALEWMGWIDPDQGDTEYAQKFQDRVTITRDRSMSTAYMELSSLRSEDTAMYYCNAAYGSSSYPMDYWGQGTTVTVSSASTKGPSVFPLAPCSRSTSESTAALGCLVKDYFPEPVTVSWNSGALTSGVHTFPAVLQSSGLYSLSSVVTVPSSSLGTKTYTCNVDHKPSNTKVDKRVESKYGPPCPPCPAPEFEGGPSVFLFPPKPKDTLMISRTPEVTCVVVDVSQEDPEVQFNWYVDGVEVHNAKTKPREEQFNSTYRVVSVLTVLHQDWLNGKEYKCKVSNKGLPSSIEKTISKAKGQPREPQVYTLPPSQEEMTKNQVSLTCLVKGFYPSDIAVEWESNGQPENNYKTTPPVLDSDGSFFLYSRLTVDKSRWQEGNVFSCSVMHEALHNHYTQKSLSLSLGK
light: B5 light
notes: Parental variable domains on IgG4 S228P/L235E; cell-free system; also called IgG4PE-parental-CF
Regarding B12, in the assay with human C1q [3], the binding result is reported as “no binding”.
